According to article PMC6522554:

Biological target: BF520.M6.I1 Env (HIV-1 (clade A, infant BF520))

B1: BF520.1 mature mAb (IgG) (antibody, V domains shown)
VH: QVQLVQSGAEMKMPGASVKVSCKASGYTFTGNYIHWVRQAPGQGLEWMGWIAPHSGDTSYAQRFQGRVTMTGDTSLSTAYMELSRLRSDDTAVYYCARGPFPNYYGPGSYWGGLDFWGQGTLVSVSS
VL: EIVMTQSPATLSVSLGERATLSCRTSQNVAYNFAWYQQKPGQAPRLLIYEASSRATGTPARFSGSGFGTEFTLTISSMQSEDFAVYYCQQYNNWPSPFTFGPGTKVHIK
How did the potency (IC50) of neutralization of the autologous pseudovirus BF520.M6.I1 turn out when B1 was run?
The potency (IC50) of neutralization of the autologous pseudovirus BF520.M6.I1 was 1.1 μg ml^−1.
